Reference: patent US20150139990A1 (DAINIPPON SUMITOMO PHARMA, published 2015)

T1: human CD81 mutant D137E (human, UniProt P60033 1-236, limits assumed)
T1 construct: as m30; not shown: C-terminal V5 and 6xHis tags
T1 sequence: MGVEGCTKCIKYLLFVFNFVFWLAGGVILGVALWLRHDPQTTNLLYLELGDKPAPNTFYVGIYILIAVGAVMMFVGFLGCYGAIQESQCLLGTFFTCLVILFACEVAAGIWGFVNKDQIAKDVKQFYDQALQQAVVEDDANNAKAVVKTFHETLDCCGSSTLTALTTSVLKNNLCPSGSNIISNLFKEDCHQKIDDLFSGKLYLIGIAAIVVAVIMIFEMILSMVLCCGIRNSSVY

T2: human CD81 mutant V169L (human, UniProt P60033 1-236, limits assumed)
T2 construct: as m30; not shown: C-terminal V5 and 6xHis tags
T2 sequence: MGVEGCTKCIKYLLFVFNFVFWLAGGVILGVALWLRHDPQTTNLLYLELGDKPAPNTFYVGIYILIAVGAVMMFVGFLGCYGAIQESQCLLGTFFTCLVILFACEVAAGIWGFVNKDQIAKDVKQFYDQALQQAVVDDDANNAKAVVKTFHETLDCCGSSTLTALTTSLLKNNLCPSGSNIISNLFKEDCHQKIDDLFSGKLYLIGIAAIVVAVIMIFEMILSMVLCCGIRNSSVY

T3: human CD81 mutant A164V (human, UniProt P60033 1-236, limits assumed)
T3 construct: as m30; not shown: C-terminal V5 and 6xHis tags
T3 sequence: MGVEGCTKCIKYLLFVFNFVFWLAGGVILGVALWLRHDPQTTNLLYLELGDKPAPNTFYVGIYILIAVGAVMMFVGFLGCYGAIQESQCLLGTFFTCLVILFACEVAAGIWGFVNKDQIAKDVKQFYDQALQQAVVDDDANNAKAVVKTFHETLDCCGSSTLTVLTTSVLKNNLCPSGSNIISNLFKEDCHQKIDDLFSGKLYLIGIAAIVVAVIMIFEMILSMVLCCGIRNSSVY

T4: human CD81 on CD81-expressing cells (Jurkat E6.1, human PBMC, Ramos) (human, UniProt P60033 1-236)
T4 sequence: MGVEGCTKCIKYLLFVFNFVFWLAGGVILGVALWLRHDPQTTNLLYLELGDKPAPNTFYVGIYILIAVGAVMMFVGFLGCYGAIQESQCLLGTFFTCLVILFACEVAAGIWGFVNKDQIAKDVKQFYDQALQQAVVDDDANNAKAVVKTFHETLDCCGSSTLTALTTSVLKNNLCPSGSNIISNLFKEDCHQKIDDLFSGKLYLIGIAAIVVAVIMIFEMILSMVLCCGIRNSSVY

T5: human CD81 mutant V135A (human, UniProt P60033 1-236, limits assumed)
T5 construct: as m30; not shown: C-terminal V5 and 6xHis tags
T5 sequence: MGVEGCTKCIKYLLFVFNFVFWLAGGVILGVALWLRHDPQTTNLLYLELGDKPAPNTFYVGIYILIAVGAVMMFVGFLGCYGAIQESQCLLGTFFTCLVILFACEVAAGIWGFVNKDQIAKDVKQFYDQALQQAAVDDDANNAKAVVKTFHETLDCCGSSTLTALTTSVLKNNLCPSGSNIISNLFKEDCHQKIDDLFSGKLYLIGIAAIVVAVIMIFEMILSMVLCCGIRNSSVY

T6: human CD81 mutant D137A (human, UniProt P60033 1-236, limits assumed)
T6 construct: as m30; not shown: C-terminal V5 and 6xHis tags
T6 sequence: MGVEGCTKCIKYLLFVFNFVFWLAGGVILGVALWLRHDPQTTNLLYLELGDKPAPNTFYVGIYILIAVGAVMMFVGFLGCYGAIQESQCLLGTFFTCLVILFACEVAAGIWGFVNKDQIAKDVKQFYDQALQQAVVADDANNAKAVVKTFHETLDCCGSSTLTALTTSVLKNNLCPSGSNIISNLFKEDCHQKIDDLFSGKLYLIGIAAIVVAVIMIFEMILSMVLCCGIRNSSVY

T7: human CD81 mutant V169A (human, UniProt P60033 1-236, limits assumed)
T7 construct: as m30; not shown: C-terminal V5 and 6xHis tags
T7 sequence: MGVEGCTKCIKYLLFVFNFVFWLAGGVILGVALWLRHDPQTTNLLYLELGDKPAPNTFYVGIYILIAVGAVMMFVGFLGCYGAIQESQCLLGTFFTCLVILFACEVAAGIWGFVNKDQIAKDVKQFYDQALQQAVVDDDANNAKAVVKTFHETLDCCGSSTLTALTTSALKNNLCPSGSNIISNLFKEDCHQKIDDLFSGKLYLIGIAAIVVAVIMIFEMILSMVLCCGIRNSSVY

T8: human CD81 mutant A164T (human, UniProt P60033 1-236, limits assumed)
T8 construct: as m30; not shown: C-terminal V5 and 6xHis tags
T8 sequence: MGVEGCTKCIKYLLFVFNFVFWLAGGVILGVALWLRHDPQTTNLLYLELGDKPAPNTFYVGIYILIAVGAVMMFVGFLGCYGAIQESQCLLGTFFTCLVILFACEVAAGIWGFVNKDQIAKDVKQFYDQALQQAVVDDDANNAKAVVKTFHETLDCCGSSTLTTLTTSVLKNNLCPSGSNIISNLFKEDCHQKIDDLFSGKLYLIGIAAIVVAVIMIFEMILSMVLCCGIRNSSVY

T9: human CD81 mutant L165A (human, UniProt P60033 1-236, limits assumed)
T9 construct: as m30; not shown: C-terminal V5 and 6xHis tags
T9 sequence: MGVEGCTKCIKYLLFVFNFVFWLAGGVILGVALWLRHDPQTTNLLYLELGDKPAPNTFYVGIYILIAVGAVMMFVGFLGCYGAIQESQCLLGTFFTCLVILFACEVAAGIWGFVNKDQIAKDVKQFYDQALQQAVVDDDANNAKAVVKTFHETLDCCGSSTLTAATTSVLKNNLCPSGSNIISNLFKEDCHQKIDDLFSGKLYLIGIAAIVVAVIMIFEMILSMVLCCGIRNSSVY

T10: human CD81 mutant V135L (human, UniProt P60033 1-236, limits assumed)
T10 construct: as m30; not shown: C-terminal V5 and 6xHis tags
T10 sequence: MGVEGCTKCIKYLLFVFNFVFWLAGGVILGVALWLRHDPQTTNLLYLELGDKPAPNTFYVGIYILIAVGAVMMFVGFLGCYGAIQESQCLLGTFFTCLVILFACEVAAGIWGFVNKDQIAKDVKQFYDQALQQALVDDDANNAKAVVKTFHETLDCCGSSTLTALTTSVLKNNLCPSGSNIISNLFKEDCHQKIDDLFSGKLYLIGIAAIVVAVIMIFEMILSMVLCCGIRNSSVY

T11: human CD81 mutant H151R (human, UniProt P60033 1-236, limits assumed)
T11 construct: as m30; also called H151B; not shown: C-terminal V5 and 6xHis tags
T11 sequence: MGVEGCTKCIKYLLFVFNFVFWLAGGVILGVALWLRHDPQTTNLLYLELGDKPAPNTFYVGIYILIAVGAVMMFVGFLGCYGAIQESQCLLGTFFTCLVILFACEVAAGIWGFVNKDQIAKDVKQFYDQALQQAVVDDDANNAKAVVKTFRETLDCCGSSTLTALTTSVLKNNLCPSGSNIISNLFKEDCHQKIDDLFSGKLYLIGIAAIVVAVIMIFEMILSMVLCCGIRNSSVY

T12: human CD81 mutant G158S (human, UniProt P60033 1-236, limits assumed)
T12 construct: as m30; not shown: C-terminal V5 and 6xHis tags
T12 sequence: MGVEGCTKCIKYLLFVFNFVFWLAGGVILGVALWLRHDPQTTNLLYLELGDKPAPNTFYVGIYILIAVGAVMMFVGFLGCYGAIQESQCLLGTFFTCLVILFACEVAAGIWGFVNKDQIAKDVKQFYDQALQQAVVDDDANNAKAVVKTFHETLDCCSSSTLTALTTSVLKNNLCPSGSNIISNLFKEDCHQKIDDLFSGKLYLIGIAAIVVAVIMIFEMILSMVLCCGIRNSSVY


Assays:
human CD81 mutant D137E = target: T1, human CD81 mutant D137E; test: ELISA
human CD81 mutant V169L = target: T2, human CD81 mutant V169L; test: ELISA
human CD81 mutant A164V = target: T3, human CD81 mutant A164V; test: ELISA
[1] = target: T4, human CD81 on CD81-expressing cells …; test: cell-based or functional assay
human CD81 mutant V135A = target: T5, human CD81 mutant V135A; test: ELISA
human CD81 mutant D137A = target: T6, human CD81 mutant D137A; test: ELISA
human CD81 mutant V169A = target: T7, human CD81 mutant V169A; test: ELISA
human CD81 mutant A164T = target: T8, human CD81 mutant A164T; test: ELISA
human CD81 mutant L165A = target: T9, human CD81 mutant L165A; test: ELISA
human CD81 mutant V135L = target: T10, human CD81 mutant V135L; test: ELISA
human CD81 mutant H151R = target: T11, human CD81 mutant H151R; test: ELISA
human CD81 mutant G158S = target: T12, human CD81 mutant G158S; test: ELISA

| relative binding affinity (human CD81 mutant D137E) | relative binding affinity (human CD81 mutant V169L) | relative binding affinity (human CD81 mutant A164V) | Jurkat chemotaxis (% of control IgG4) at 0.001 µg/mL [1] | Jurkat chemotaxis (% of control IgG4) at 0.01 µg/mL [1] | Jurkat chemotaxis (% of control IgG4) at 0.1 µg/mL [1] | Jurkat chemotaxis (% of control IgG4) at 1 µg/mL [1] | Jurkat chemotaxis (% of control IgG4) at 10 µg/mL [1] | relative binding affinity (human CD81 mutant V135A) | relative binding affinity (human CD81 mutant D137A) | relative binding affinity (human CD81 mutant V169A) | relative binding affinity (human CD81 mutant A164T) | relative binding affinity (human CD81 mutant L165A) | relative binding affinity (human CD81 mutant V135L) | relative binding affinity (human CD81 mutant H151R) | relative binding affinity (human CD81 mutant G158S) | Binder |
| --- | --- | --- | --- | --- | --- | --- | --- | --- | --- | --- | --- | --- | --- | --- | --- | --- |
| < 20% | < 20% | < 20% | 106% | 104% | 31% | -5% | -4% | < 20% | < 20% | < 20% | < 20% | < 20% |  |  |  | 002-C02 (antibody, human IgG4 S228P, lambda, V domains shown, IgG4 S228P) VH: EVQLLESGGGLVQPGGSLRLSCAASGFTFSSNYMSWVRQAPGKGLEWVSYISSSSSYTDYADTVKGRFTISRDNSKNTLYLQMNSLRAEDTAVYYCASYSYGRDSFDYWGQGTLVTVSS VL: QSVLTQPPSASGTPGQRVTISCTGSTSNIGAGYDTHWYQQLPGTAPKLLIYGNSNRPSGVPDRFSGSKSGTSASLAISGLRTEDEADYYCQSYDTNLSVWVFGGGTKLTVLG |
| < 20% | < 20% | < 20% | 80% | 79% | 21% | -3% | -4% | < 20% | < 20% | < 20% | < 20% | < 20% | < 20% | < 20% | < 20% | 003-F08 (antibody, human IgG4 S228P, lambda, V domains shown, IgG4 S228P) VH: EVQLLESGGGLVQPGGSLRLSCAASGFTFSSNYMSWVRQAPGKGPEWVSYISSSSTYADYADSVKGRFTISRDNSKNTLYLQMNSLRAEDTAVYYCARYSYGRDNFDYWGQGTLVTVSS VL: QSVLTQPSSASGTPGQRVTISCTGSTSNIGAGYDTHWYQQLPGTAPKLLIYGNSNRPSGVPDRFSGSKSGTSASLAISGLRSEDEADYYCQSYDTNLSAWVFGGGTKLTVLG |
